From patent US8809529B2, “Imidazo[1,2-α]pyrazine derivatives” (Promega Corporation, priority 2010, dated 2014)
Where a chain is given by its changes, count along the chain named. Names and notes keep the numbering of the source.

Key:
[1] = Enzyme kinetics of OgLuc variants (Km, Vmax); type: biochemical, E. coli; details: PBI-3939, average of three replicates
Method: Using methods known in the art, enzyme kinetic assays measuring luminescence were performed with the lysates of E. coli containing N and the IV variants 15C1, 9B8, 9F6, and 9A3. […] Two fold serial dilutions of PBI-3939 in the assay buffer described previously in Example 26 were assayed with the diluted lysates. […] Variants 9B8 and 9F6 had higher Km values compared to IV while Km values for the other variants were unchanged.
Luminescence was measured on a TECAN® INFINITE® F500 luminometer.
The enzyme kinetics values were determined for the OgLuc variants as described previously, except luminescence was measured using a GLOMAX® luminometer. Three replicates were used for each variant.

[2] = Exposure of L27V to 3 M urea; type: physicochemical; details: 30 min at 25° C.
Method: A 0.31 mg/mL stock of purified L27V variant was diluted 100,000-fold into buffer (PBS+1 mM DTT+0.005% IGEPAL) and incubated with 3 M urea for 30 min at 25° C. and then mixed 1:1 (50 μL+50 μL) with an assay reagent containing 100 μM PBI-3939 (previously described). The reactions were read on a TECAN® INFINITE® F500 luminometer as described previously (for 100 min; 1 min read intervals) (FIG. 89).

[3] = Km of L27V reversion variants for PBI-3939; type: biochemical
Method: Relative activities <1 indicate the reversion is detrimental compared to the residue at that site in the L27V variant. Relative activities >1 indicate the reversion is favorable for activity compared to the residue at that site in the L27V variant. Some additional data on these mutants indicated the following: 166K, 54F, 54A and L27V were tested for thermal stability. The T1/2 60° C. for 166K, 54F, and 54A were 87, 74, and 33%, respectively, indicating these substitutions cause a reduction in thermal stability. […] This indicates higher substrate affinity for L27V, particularly for the position 54 substitutions.

[4] = Brightness and relative specificity of 9B8 and 9B8 opt+K33N variants in E. coli lysates; type: biochemical; details: for Fold over coelenterazine / Fold over 9B8: bacterial lysates; for Fold over coelenterazine: PBI-3939 luminescence divided by native coelenterazine luminescence; for Fold over 9B8: luminescence normalized to 9B8 opt
Method: Additional variants with improved relative specificity to novel PBI-3939 were generated as described previously by saturating amino acid positions 18, 68, 72, 75, and 90 in variant 9B8. […] Relative specificity was determined from the ratio of the luminescence of the variant with PBI-3939 to the luminescence of the variant with native coelenterazine, normalized to the ratio of corresponding luminescence of 9B8. Table 8 lists 9B8 variants (“Variant”) with at least 1.1× fold-increase in relative specificity for PBI-3939. […] 9B8 variants with amino acid substitutions K, D, F, G, Y, W, and H at position 18 had the highest fold improvement in relative specificity.
A new OgLuc library was created using 9B8opt+K33N as a starting template. The random library was created using DIVERSIFY® PCR Random Mutagenesis Kit (ClonTech; Catalog #630703). Condition 5 (as listed in the user manual) was used to generate additional variants, and the average mutation rate was calculated to be 2.6 mutations per gene by compiling sequence data from 83 randomly selected clones. This PCR library was cloned into the pF4Ag-based, non-fusion vector background described previously and the sandwich background, i.e., Id-OgLuc-HT7 (described in Example 45). Variants in the pF4Ag-base non-fusion vector background are designated with (NF). Variants in the sandwich vector background are designated with (F). In order to clone the PCR product into both vectors, an amino acid, i.e., a glycine, was appended to the variant sequence in pF4Ag, generating a new position 170 in the OgLuc variant (“170G”). The 170G is present in the sandwich construct, but in this case is considered part of the linker between OgLuc and HT7. For each library, 4,400 E. coli clones were assayed as described previously with the following exceptions. […] The assay buffer contained 100 mM MES pH 6.0 instead of HEPES, and 35 mM thiourea. The assay volumes were as follows: 10 μL cells, 40 μL lysis buffer, and 50 μL assay buffer.
Based on the above data, further combination variants were designed and generated (see Table 10) in the context of the pF4Ag-based non-fusion vector background without the 170G. The variants were analyzed in E. coli, HEK293 and NIH3T3 cells as described above and compared to 9B8 opt+K33N. The variants were also examined for luminescence with native coelenterazine.
E. coli lysates containing the variants were prepared and analyzed as described previously. Luminescence generated from the lysates was measured using the novel PBI-3939 and native coelenterazine as substrates. The luminescence of the variants was normalized to the luminescence generated by 9B8 opt (Table 12). The relative specificity of the variants for PBI-3939 and native coelenterazine was calculated by dividing the luminescence of the variants using PBI-3939 as a substrate with the luminescence of the variants using native coelenterazine as a substrate (Table 12).

caspase-3 = target: T1, caspase-3 (Homo sapiens, UniProt P42574); experiment: Caspase-3 bioluminescent assay with 9B8 opt and z-DEVD-coelenterazine-h; type: biochemical
T1 sequence (P42574 29-175 limits assumed): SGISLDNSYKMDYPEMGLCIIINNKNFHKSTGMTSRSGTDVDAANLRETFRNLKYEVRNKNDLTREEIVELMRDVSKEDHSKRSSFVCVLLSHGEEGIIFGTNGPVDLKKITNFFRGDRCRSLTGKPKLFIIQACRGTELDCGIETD
T1 sequence (P42574 176-277 limits assumed): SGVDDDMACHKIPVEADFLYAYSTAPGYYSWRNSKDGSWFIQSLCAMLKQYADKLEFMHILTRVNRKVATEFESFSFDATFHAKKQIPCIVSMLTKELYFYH
Method: 1. […] Purified caspase-3 enzyme was mixed with an E. coli lysate sample expressing the variant 9B8 opt, which was prepared as described in Example 27, and diluted 10-fold in a buffer containing 100 mM MES pH 6.0, 1 mM CDTA, 150 mM KCl, 35 mM thiourea, 2 mM DTT, 0.25% TERGITOL® NP-9 (v/v), 0.025% MAZU® DF 204, with or without 23.5 μM z-DEVD-coelenterazine-h in 100 mM HEPES pH 7.5 (“DEVD” disclosed as SEQ ID NO: 581). The caspase-3 enzyme was incubated with the lysate sample for 3 hrs at room temperature, and luminescence detected on a Turner MODULUS™ luminometer at various time points. A sample containing only bacterial lysate and a sample containing only caspase-3 were used as controls. Three replicates were used.

B1: L27V: 9B8 opt+K33N variant with L27V, T39T, K43R, Y68D (protein)
chain: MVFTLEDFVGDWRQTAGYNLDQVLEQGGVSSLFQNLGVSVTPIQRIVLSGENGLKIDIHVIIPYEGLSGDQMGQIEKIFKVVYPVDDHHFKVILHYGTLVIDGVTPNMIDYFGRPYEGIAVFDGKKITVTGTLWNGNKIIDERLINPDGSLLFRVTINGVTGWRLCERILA
[1]
  Km: 13.9 µM
  Vmax: 190,000,000 RLU/0.5 sec
[2]
  reduction of activity by 3M urea: approximately 50%
[3]
  Km: 18 µM
[4]
  Fold over coelenterazine: 110
  Fold over 9B8: 1.8
[4]; luminescence, PBI-3939
  Fold over 9B8 opt + K33N: E. coli: 0.9
[4]; relative specificity for PBI-3939
  Fold over Native Coelenterazine: E. coli: 85.2

B2: 9B8: IV variant with Q18L, F68Y, L72Q, M75K; in Tables 12, 22, 23, 26, 27 “9B8” stands for 9B8 opt (protein)
chain: B1 chain with V29L, N35K, R45K, D70Y
[1]
  Km: 7.7 µM
  Vmax: 86,000,000 RLU/0.5 sec
[4]
  Fold over coelenterazine: 7
  Fold over 9B8: 1.0

B3: 9B8 opt: codon optimized version of the 9B8 variant (protein)
chain: B1 chain with V29L, N35K, R45K, D70Y
caspase-3; 5 min, z-DEVD-coelenterazine-h
  + caspase (RLU): 25,411 RLU
  no caspase (RLU): 26,023 RLU
caspase-3; 15.3 min
  + caspase (RLU): 36,906 RLU
  no caspase (RLU): 7,707 RLU
caspase-3; 29.9 min
  + caspase (RLU): 41,854 RLU
  no caspase (RLU): 4,013 RLU
caspase-3; 60.9 min
  + caspase (RLU): 43,370 RLU
  no caspase (RLU): 2,305 RLU
caspase-3; 190.3 min
  + caspase (RLU): 42,448 RLU
  no caspase (RLU): 1,155 RLU
